Here are results for three molecules from patent US20240036027A1 (UNIVERSITY OF MASSACHUSETTS, published 2024).

The target of experiment [1] is T1, Streptavidin (unconjugated, EMD Millipore) (UniProt P22629 37-163). The experiment can be described thus: single-channel current recording.
For experiment [2], the target named is T1, Streptavidin (unconjugated, EMD …). The experiment can be described thus: single-channel current recording, discrete binding events.
Experiment [3] has the same target. The experiment is described as follows: single-channel current recording, KOff of the lower Ires state taking transient returns to basal conductance as dissociation.
The target is the same in experiment [4]. The experiment can be described thus: single-channel current recording, kOff=1/tauOff.
The target is the same in experiment [5]. The experiment is described as follows: single-channel current recording, kOn=1/(C*tauOn).
For experiment [6] the target is unchanged. The experiment can be described thus: single-channel current recording, apparent Kd=kOff/kOn, N=3, n=903.
For experiment [7] the target is unchanged. The experiment can be described thus: single-channel current recording, streptavidin alone, N=12, n=2846.
For experiment [8] the target is unchanged. The experiment is described as follows: single-channel current recording, streptavidin alone, concentration dependence.
Experiment [9] has the same target. The experiment can be described thus: single-channel current recording, calculated from kOff and kOn.

T1 sequence (P22629 37-163 limits assumed): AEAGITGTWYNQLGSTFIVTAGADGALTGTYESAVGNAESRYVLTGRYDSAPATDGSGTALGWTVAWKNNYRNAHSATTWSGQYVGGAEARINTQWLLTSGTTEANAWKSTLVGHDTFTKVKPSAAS

B1: OmpG^L3/L6-SA1.1 (designed binder)
chain: MEERNDWHFNIGAMYEIENVEGYGEDMDGLAEPSVYFNAANGPWRIALAYYQEGPVDYSAGKRGTWFDRPELEVHYQFLENDDFSFGLTGGFRNYGYHYVDEPGLEICQNVCYYGGKDTANMQRWKIAPDWDVKLTDDLRFNGWLSMYKFANDLNTTGYADTRVETETGLQYTFNETVALRVNYYLERGFNMDDSRNNGEFSTQEIRAYLPLTLGNHSVTPYTRIGLDRWSNWDWQGLEICQNVCYYGDDIEREGHDFNRVGLFYGYDFQNGLSVSLEYAFEWQDHDEGDSDKFHYAGVGVNYSF
notes: SA1.1 motif in both loops 3 and 6; also called avidity sensor; avidity nanopore sensor
Regarding B1, in experiment [1], the “fold change of KOff against OmpG^L6-SA1.1” value is around 76 fold and the “fold change of KOn against OmpG^L6-SA1.1” value is around 4.7 fold. Moreover, in experiment [2], the koff stood at 0.0103 s⁻¹ and the kon came out at 326000 M⁻¹ s⁻¹. For the same molecule, the koff in [3] was 0.701 s⁻¹.

B2: OmpG^L6-SA1.1 (designed binder)
chain: MEERNDWHFNIGAMYEIENVEGYGEDMDGLAEPSVYFNAANGPWRIALAYYQEGPVDYSAGKRGTWFDRPELEVHYQFLENDDFSFGLTGGFRNYGYHYVDEPGKDTANMQRWKIAPDWDVKLTDDLRFNGWLSMYKFANDLNTTGYADTRVETETGLQYTFNETVALRVNYYLERGFNMDDSRNNGEFSTQEIRAYLPLTLGNHSVTPYTRIGLDRWSNWDWQGLEICQNVCYYGDDIEREGHDFNRVGLFYGYDFQNGLSVSLEYAFEWQDHDEGDSDKFHYAGVGVNYSF
notes: also called Loop 6 SA1.1
In [4], B2 gave an off-rate (koff) of 0.783 s⁻¹. Also, the kon in experiment [5] was 69100 M⁻¹ s⁻¹. In addition, the Kd in [6] worked out at 8.83 µM.

B3: OmpG^L3-FLAG/L6-SA1.1 (designed binder)
chain: MEERNDWHFNIGAMYEIENVEGYGEDMDGLAEPSVYFNAANGPWRIALAYYQEGPVDYSAGKRGTWFDRPELEVHYQFLENDDFSFGLTGGFRNYGYHYVDEPGDYKDDDDKGGKDTANMQRWKIAPDWDVKLTDDLRFNGWLSMYKFANDLNTTGYADTRVETETGLQYTFNETVALRVNYYLERGFNMDDSRNNGEFSTQEIRAYLPLTLGNHSVTPYTRIGLDRWSNWDWQGLEICQNVCYYGDDIEREGHDFNRVGLFYGYDFQNGLSVSLEYAFEWQDHDEGDSDKFHYAGVGVNYSF
notes: Possible glycines beside SA1.1 (primers) not built in; also called multiplex sensor; SA1.1 multiplex sensor
Take B3: the off-rate (koff) in experiment [7] was determined as 0.552 s⁻¹. The same molecule gave a kon in [8] of 73200 M⁻¹ s⁻¹. Moreover, the Kd in [9] was 7.54 µM.

As usually defined, the koff is a measure of how fast the partners let go of each other. A low value points to a long-lived complex. One may read the kon as the second-order rate constant of association. Higher therefore signals faster complex formation.
